Test results from US20100135996A1 (INSTITUT NATIONAL DE LA SANTE ET DE LA RECHERCHE MEDICALE …, published 2010).

Target: T1, human Anti-Mullerian Hormone type II receptor (AMHR-II) (human, UniProt Q16671 18-573)
T1 construct: whole, on cells; In the western blot it was the same protein in reduced SDS-PAGE lysates of xenografts of these cells; also called hAMHR-II
T1 sequence (looked up): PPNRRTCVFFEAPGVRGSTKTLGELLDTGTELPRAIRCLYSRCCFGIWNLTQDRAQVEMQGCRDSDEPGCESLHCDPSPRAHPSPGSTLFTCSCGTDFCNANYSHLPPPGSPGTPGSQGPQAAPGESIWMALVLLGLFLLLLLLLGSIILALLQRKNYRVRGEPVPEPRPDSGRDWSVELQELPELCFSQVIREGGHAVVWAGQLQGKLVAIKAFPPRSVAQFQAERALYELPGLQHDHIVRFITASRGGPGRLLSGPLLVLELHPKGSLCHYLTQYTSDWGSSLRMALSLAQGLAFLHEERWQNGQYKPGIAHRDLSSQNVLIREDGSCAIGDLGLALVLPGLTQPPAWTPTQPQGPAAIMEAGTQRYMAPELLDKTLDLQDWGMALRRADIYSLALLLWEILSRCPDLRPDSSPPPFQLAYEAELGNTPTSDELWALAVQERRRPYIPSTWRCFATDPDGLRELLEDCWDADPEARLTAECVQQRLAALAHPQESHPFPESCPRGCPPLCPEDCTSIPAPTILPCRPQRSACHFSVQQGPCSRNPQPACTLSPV
Test: flow cytometry of hybridoma supernatants on AMHR-II positive cells

binding result: binds
B1: anti-AMHR-II mAb 12G4 (antibody, mouse IgG1, V domains shown)
VH: QVQLQQSGPELVKPGASVRMSCKASGYTFTSYHIHWVKQRPGQGLEWIGWIYPGDDSTKYNEKFKGKTTLTADKSSSTAYMLLSSLTSEDSAIYFCTRGDRFAYWGQGTLVTVSA
VL: QIVLTQSPAIMSASLGEGITLTCSASSSVRYIHWYQQKSGTSPKLLIYSTSNLASGVPSRFSGSGSGTFHSLTISSVEAEDAADYYCLQWSSYPWTFGGGTKLEIK
notes: also called antibody of hybridoma CNCM I-3673
